Experimental data: patent publication US20170022281A1 (AbbVie / Abbott, published 2017)

What was measured:
[1] = target: T1, human PRLR ECD-Fc fusion protein (human, UniProt P16471 25-233); test: ELISA on ECD
T1 construct: not shown: Fc region (captured by goat anti-human Fc)
T1 sequence: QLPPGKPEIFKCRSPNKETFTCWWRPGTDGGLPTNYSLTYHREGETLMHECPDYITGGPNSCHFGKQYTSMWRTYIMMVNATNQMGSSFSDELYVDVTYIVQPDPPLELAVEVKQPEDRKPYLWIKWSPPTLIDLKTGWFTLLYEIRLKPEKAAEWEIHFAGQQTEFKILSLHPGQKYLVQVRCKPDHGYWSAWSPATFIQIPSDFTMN
Method in brief: (§1)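 PRLR was captured on blocked plates for 1 h, then incubated 1 h with serial antibody dilutions in PBS pH 7.4/0.05% Tween 20 containing 10% Superblock. HRP secondary and TMB gave signal read at 450 nm, and EC50 came from curve fitting.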

[2] = target: T2, cyno PRLR ECD-his6 protein (cyno); test: ELISA on ECD
T2 chain: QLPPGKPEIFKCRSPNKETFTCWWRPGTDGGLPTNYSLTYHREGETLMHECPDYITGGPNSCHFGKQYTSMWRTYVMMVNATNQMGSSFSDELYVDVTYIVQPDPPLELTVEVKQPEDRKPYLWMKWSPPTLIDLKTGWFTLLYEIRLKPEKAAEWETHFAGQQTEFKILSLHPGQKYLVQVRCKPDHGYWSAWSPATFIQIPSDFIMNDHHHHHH
Method in brief: as §1

[3] = target: T3, human PRLR (Biacore antigen) (human, UniProt P16471 25-234, limits assumed); test: SPR simultaneous binding; PRLR held by surface mAb Ab49
T3 construct: The construct injected over captured antibody is not described (a soluble form is likely); also called huPRLR
T3 sequence: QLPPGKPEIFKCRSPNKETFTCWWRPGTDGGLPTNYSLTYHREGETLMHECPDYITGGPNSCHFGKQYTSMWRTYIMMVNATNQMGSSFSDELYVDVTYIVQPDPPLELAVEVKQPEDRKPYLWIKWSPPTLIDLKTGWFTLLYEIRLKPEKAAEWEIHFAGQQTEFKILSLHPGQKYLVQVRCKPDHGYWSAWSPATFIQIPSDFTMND
Description: (§2) Running buffer was HBS-EP+ (10 mM Hepes, pH7.4, 150 mM NaCl, 3 mM EDTA, 0.05% surfactant). Assay was performed at 12° C. using Biacore T200 and CM5 sensor chips with anti-human IgG (Pierce) amine-coupled in all 4 flow cells to ˜2000 RU.
(§3) Separate test mAbs were captured in flowcells 2, 3 & 4 (flowcell 1 was reference, no test mAb). All 4 flowcells were then blocked by injection with isotype control mAb at 50 ug/ml. All 4 flowcells were then injected with antigen or buffer only (buffer only is for double referencing, done for each mAb pair individually). All 4 flowcells were then injected with 2nd test mAb at 10 ug/ml. All 4 flowcells were then regenerated with glycine, pH1.5.

human PRLR on cells = target: T4, human PRLR on cells (human, UniProt P16471 25-622); test: FACS T47D 10 ug/mL
T4 construct: Endogenous on T47D cells, transfected in Baf3-hPRLR cells; also called hPRLR; T47D cells
T4 sequence: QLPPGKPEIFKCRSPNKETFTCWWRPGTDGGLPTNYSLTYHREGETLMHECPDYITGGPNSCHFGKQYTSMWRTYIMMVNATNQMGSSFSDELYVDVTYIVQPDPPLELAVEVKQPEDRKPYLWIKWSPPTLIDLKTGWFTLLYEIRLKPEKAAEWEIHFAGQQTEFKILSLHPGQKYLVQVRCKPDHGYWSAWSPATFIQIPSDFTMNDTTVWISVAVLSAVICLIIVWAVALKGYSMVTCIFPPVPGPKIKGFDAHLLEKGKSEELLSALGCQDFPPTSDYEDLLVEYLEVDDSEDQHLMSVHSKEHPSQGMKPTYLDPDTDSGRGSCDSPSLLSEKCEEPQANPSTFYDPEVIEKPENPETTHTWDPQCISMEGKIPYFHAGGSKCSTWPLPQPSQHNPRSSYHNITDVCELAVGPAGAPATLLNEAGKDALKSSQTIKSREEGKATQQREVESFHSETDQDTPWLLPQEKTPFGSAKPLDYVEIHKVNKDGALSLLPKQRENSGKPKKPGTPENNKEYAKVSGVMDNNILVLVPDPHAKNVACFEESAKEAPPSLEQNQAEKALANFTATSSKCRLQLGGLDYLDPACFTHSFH

[4] = target: T3, human PRLR (Biacore antigen); test: SPR simultaneous binding; PRLR held by surface mAb Ab48
Description: as §2, §3

[5] = target: T3, human PRLR (Biacore antigen); test: SPR Biacore
Method in brief: (§4)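 Association rate, dissociation rate and dissociation constant were measured by surface plasmon resonance on a Biacore instrument. PRLR antigen was tested at 600 nM, 66.67 nM and 7.41 nM, a 3-point, 9-fold dilution series. Constants came from a 1:1 binding model fit (local Rmax, mass-transport term included) in Biacore T200 Evaluation Software.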

[6] = target: T5, cyno PRLR (Biacore antigen) (cyno, UniProt A0A2K5WXK1 25-234); test: SPR Biacore
T5 construct: also called cyPRLR
T5 sequence: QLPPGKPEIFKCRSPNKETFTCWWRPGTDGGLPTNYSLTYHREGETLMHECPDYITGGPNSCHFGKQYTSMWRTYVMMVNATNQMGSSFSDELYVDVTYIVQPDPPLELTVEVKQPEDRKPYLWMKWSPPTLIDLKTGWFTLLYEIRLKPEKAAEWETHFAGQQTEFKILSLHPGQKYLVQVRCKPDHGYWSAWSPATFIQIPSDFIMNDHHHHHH
Method in brief: as §4

[7] = target: T6, murine PRLR (Biacore antigen) (murine, UniProt Q08501 20-229, limits assumed); test: SPR Biacore
T6 construct: also called muPRLR
T6 sequence (looked up): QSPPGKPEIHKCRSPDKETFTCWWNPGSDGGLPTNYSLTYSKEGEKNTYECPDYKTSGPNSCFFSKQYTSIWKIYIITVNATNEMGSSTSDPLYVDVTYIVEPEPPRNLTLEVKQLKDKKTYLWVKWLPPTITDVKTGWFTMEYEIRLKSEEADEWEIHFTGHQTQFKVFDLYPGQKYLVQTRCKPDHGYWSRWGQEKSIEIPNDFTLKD
Method in brief: as §4

[8] = target: T3, human PRLR (Biacore antigen); test: SPR simultaneous binding; PRLR held by surface mAb Ab30
Description: as §2, §3

B1: LFA102 (antibody, human IgG1, kappa, V domains shown)
VH: EVQLVESGGGLVQPGGSLRLSCAVSGFTFSSYGMSWVRQAPGKRLEWVATVSSGGTYTYYPDSVKGRFTISRDNSKNTLYLQMNSLRAEDTAMYYCARHRGNYYATYYYAMDYWGQGTLVTVSS
VL: DIVLTQSPDSLAVSLGERATINCKASKSVSTSGYTYMHWYQQKPGQPPKLLIYLASNRESGVPDRFSGSGSGTDFTLTISPVQAEDVATYYCQHSGELPPSFGQGTKLEIKR
notes: humanized IgG1 kappa comparator (WO 2008022295)
In the case of B1, the EC50 [1] is reported as 0.053 nM, the EC50 [2] is reported as 0.154 nM and the “solution mAb binding, % of PRLR binding” value [3] is reported as 1%. The “FACS GeoMean-neg” value (human PRLR on cells) was 1640, the “solution mAb binding, % of PRLR binding” value [4] was -1% and the Kd [5] was 1.3 nM. It also gave a koff [5] of 0.00073 s⁻¹, a kon [5] of 560000 M⁻¹ s⁻¹ and a Kd [6] of 11 nM. For the same binder, the koff [6] was 0.0095 s⁻¹, the kon [6] was 880000 M⁻¹ s⁻¹ and the Kd [7] was 26 nM. The koff [7] was 0.016 s⁻¹, the kon [7] was 620000 M⁻¹ s⁻¹ and the “solution mAb binding, % of PRLR binding” value [8] was 35%.
